The supplement of paper PMC5998384

Columns and labels:
[1] = tested on: HeLa Kyoto; assay: thermal stability score vs G1/S (z-score of summed log2 fold changes over temperatures); higher = more thermally stable than in G1/S
[2] = tested on: HeLa Kyoto; assay: solubility in G1/S (NP-40 vs SDS abundance) (log2 ratio); higher = more soluble; conditions: cell cycle stage: G1/S
[3] = tested on: HeLa Kyoto; assay: solubility change mitosis vs G1/S (difference of NP-40 vs SDS log2 ratios) (log2 ratio difference); higher = more soluble in mitosis
[4] = tested on: HeLa Kyoto; assay: melting temperature (median over replicates), in situ; higher = more thermally stable
[5] = cell cycle stage: early G1 (4.5 h after nocodazole release)
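Wherever melting temperature (median over replicates), in situ is given: HeLa Kyoto cells synchronized by double thymidine or nocodazole block, proteins quantified by TMT10plex mass spectrometry, three independent biological replicates.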
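Wherever solubility change mitosis vs G1/S (difference of NP-40 vs SDS log2 ratios) is given: synchronized HeLa Kyoto cells (double thymidine block for G1/S, nocodazole release for mitosis), protein amounts in NP-40 versus SDS lysates quantified by mass spectrometry, three biological replicates.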
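Wherever solubility in G1/S (NP-40 vs SDS abundance) is given: HeLa Kyoto cells arrested at G1/S by double thymidine block, proteins quantified by TMT10plex mass spectrometry in mild NP-40 versus SDS extracts, three biological replicates.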
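Wherever thermal stability score vs G1/S (z-score of summed log2 fold changes over temperatures) is given: synchronized HeLa Kyoto cells, proteins quantified by TMT10plex mass spectrometry, three biological replicates, mitosis taken 0.5 h after nocodazole release, G1/S directly after double thymidine block.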

Sequence	thermal stability score [1, 5]	thermal stability score ([1]; cell cycle stage: mitosis)	solubility in G1/S (log2) [2]	solubility change mitosis (log2) [3]	melting temperature ([4]; cell cycle stage: G1/S) [°C]	melting temperature ([4]; cell cycle stage: mitosis) [°C]
MFWKFDLNTTSHVDKLLDKEHVTLQELMDEDDILQECKAQNQKLLDFLCRQQCMEELVSLITQDPPLDMEEKVRFKYPNTACELLTCDVPQISDRLGGDESLLSLLYDFLDHEPPLNPLLASFFSKTIGNLIARKTEQVITFLKKKDKFISLVLKHIGTSALMDLLLRLVSCVEPAGLRQDVLHWLNEEKVIQRLVELIHPSQDEDRQSNASQTLCDIVRLGRDQGSQLQEALEPDPLLTALESQDCVEQLLKNMFDGDRTESCLVSGTQVLLTLLETRRVGTEGLVDSFSQGLERSYAVSSSVLHGIEPRLKDFHQLLLNPPKKKAILTTIGVLEEPLGNARLHGARLMAALLHTNTPSINQELCRLNTMDLLLDLFFKYTWNNFLHFQVELCIAAILSHAAREERTEASGSESRVEPPHENGNRSLETPQPAASLPDNTMVTHLFQKCCLVQRILEAWEANDHTQAAGGMRRGNMGHLTRIANAVVQNLERGPVQTHISEVIRGLPADCRGRWESFVEETLTETNRRNTVDLVSTHHLHSSSEDEDIEGAFPNELSLQQAFSDYQIQQMTANFVDQFGFNDEEFADQDDNINAPFDRIAEINFNIDADEDSPSAALFEACCSDRIQPFDDDEDEDIWEDSDTRCAARVMARPRFGAPHASESCSKNGPERGGQDGKASLEAHRDAPGAGAPPAPGKKEAPPVEGDSEGAMWTAVFDEPANSTPTAPGVVRDVGSSVWAAGTSAPEEKGWAKFTDFQPFCCSESGPRCSSPVDTECSHAEGSRSQGPEKASQASYFAVSPASPCAWNVCVTRKAPLLASDSSSSGGSHSEDGDQKAASAMDAVSRGPGREAPPLPTVARTEEAVGRVGCADSRLLSPACPAPKEVTAAPAVAVPPEATVAITTALSKAGPAIPTPAVSSALAVAVPLGPIMAVTAAPAMVATLGTVTKDGKTDAPPEGAALNGPV [PPP6R2]	-0.206	-1.5	0.0656	-0.119	54.5	52.8
MGALVIRGIRNFNLENRAEREISKMKPSVAPRHPSTNSLLREQISLYPEVKGEIARKDEKLLSFLKDVYVDSKDPVSSLQVKAAETCQEPKEFRLPKDHHFDMINIKSIPKGKISIVEALTLLNNHKLFPETWTAEKIMQEYQLEQKDVNSLLKYFVTFEVEIFPPEDKKAIRSK [NDUFAF4]	-2.2	-2.98	0.314	-0.0449	50.4	54.2
MGAQLSTLGHMVLFPVWFLYSLLMKLFQRSTPAITLESPDIKYPLRLIDREIISHDTRRFRFALPSPQHILGLPVGQHIYLSARIDGNLVVRPYTPISSDDDKGFVDLVIKVYFKDTHPKFPAGGKMSQYLESMQIGDTIEFRGPSGLLVYQGKGKFAIRPDKKSNPIIRTVKSVGMIAGGTGITPMLQVIRAIMKDPDDHTVCHLLFANQTEKDILLRPELEELRNKHSARFKLWYTLDRAPEAWDYGQGFVNEEMIRDHLPPPEEEPLVLMCGPPPMIQYACLPNLDHVGHPTERCFVF [CYB5R3]	-1.92	-2.76	-0.215	-0.158	56	55.8
MGASARLLRAVIMGAPGSGKGTVSSRITTHFELKHLSSGDLLRDNMLRGTEIGVLAKAFIDQGKLIPDDVMTRLALHELKNLTQYSWLLDGFPRTLPQAEALDRAYQIDTVINLNVPFEVIKQRLTARWIHPASGRVYNIEFNPPKTVGIDDLTGEPLIQREDDKPETVIKRLKAYEDQTKPVLEYYQKKGVLETFSGTETNKIWPYVYAFLQTKVPQRSQKASVTP [AK3]	-1.02	-2.48	0.43	0.00633	54.3	54.2
MGAVWSALLVGGGLAGALFVWLLRGGPGDTGKDGDAEQEKDAPLGGAAIPGGHQSGSSGLSPGPSGQELVTKPEHLQESNGHLISKTKDLGKLQAASWRLQNPSREVCDNSREHVPSGQFPDTEAPATSETSNSRSYSEVSRNESLESPMGEWGFQKGQEISAKAATCFAEKLPSSNLLKNRAKEEMSLSDLNSQDRVDHEEWEMVPRHSSWGDVGVGGSLKAPVLNLNQGMDNGRSTLVEARGQQVHGKMERVAVMPAGSQQVSVRFQVHYVTSTDVQFIAVTGDHECLGRWNTYIPLHYNKDGFWSHSIFLPADTVVEWKFVLVENGGVTRWEECSNRFLETGHEDKVVHAWWGIH [STBD1]	0.314	-0.125	-0.336	-0.0441	50.7	50.3
MGCCSSASSAAQSSKREWKPLEDRSCTDIPWLLLFILFCIGMGFICGFSIATGAAARLVSGYDSYGNICGQKNTKLEAIPNSGMDHTQRKYVFFLDPCNLDLINRKIKSVALCVAACPRQELKTLSDVQKFAEINGSALCSYNLKPSEYTTSPKSSVLCPKLPVPASAPIPFFHRCAPVNISCYAKFAEALITFVSDNSVLHRLISGVMTSKEIILGLCLLSLVLSMILMVIIRYISRVLVWILTILVILGSLGGTGVLWWLYAKQRRSPKETVTPEQLQIAEDNLRALLIYAISATVFTVILFLIMLVMRKRVALTIALFHVAGKVFIHLPLLVFQPFWTFFALVLFWVYWIMTLLFLGTTGSPVQNEQGFVEFKISGPLQYMWWYHVVGLIWISEFILACQQMTVAGAVVTYYFTRDKRNLPFTPILASVNRLIRYHLGTVAKGSFIITLVKIPRMILMYIHSQLKGKENACARCVLKSCICCLWCLEKCLNYLNQNAYTATAINSTNFCTSAKDAFVILVENALRVATINTVGDFMLFLGKVLIVCSTGLAGIMLLNYQQDYTVWVLPLIIVCLFAFLVAHCFLSIYEMVVDVLFLCFAIDTKYNDGSPGREFYMDKVLMEFVENSRKAMKEAGKGGVADSRELKPMASGASSA [SLC44A1]	-1.35	-2.05	-0.0157	-0.147	55.7	–
MGCTLSAEDKAAVERSKMIDRNLREDGEKAAKEVKLLLLGAGESGKSTIVKQMKIIHEDGYSEDECKQYKVVVYSNTIQSIIAIIRAMGRLKIDFGEAARADDARQLFVLAGSAEEGVMTPELAGVIKRLWRDGGVQACFSRSREYQLNDSASYYLNDLDRISQSNYIPTQQDVLRTRVKTTGIVETHFTFKDLYFKMFDVGGQRSERKKWIHCFEGVTAIIFCVALSDYDLVLAEDEEMNRMHESMKLFDSICNNKWFTETSIILFLNKKDLFEEKIKRSPLTICYPEYTGSNTYEEAAAYIQCQFEDLNRRKDTKEIYTHFTCATDTKNVQFVFDAVTDVIIKNNLKECGLY [GNAI3]	0.761	0.823	-0.638	-0.175	53.5	54.2
MGDERPHYYGKHGTPQKYDPTFKGPIYNRGCTDIICCVFLLLAIVGYVAVGIIAWTHGDPRKVIYPTDSRGEFCGQKGTKNENKPYLFYFNIVKCASPLVLLEFQCPTPQICVEKCPDRYLTYLNARSSRDFEYYKQFCVPGFKNNKGVAEVLQDGDCPAVLIPSKPLARRCFPAIHAYKGVLMVGNETTYEDGHGSRKNITDLVEGAKKANGVLEARQLAMRIFEDYTVSWYWIIIGLVIAMAMSLLFIILLRFLAGIMVWVMIIMVILVLGYGIFHCYMEYSRLRGEAGSDVSLVDLGFQTDFRVYLHLRQTWLAFMIILSILEVIIILLLIFLRKRILIAIALIKEASRAVGYVMCSLLYPLVTFFLLCLCIAYWASTAVFLSTSNEAVYKIFDDSPCPFTAKTCNPETFPSSNESRQCPNARCQFAFYGGESGYHRALLGLQIFNAFMFFWLANFVLALGQVTLAGAFASYYWALRKPDDLPAFPLFSAFGRALRYHTGSLAFGALILAIVQIIRVILEYLDQRLKAAENKFAKCLMTCLKCCFWCLEKFIKFLNRNAYIMIAIYGTNFCTSARNAFFLLMRNIIRVAVLDKVTDFLFLLGKLLIVGSVGILAFFFFTHRIRIVQDTAPPLNYYWVPILTVIVGSYLIAHGFFSVYGMCVDTLFLCFLEDLERNDGSAERPYFMSSTLKKLLNKTNKKAAES [SLC44A2]	-1.29	-2.25	0.0147	0.0871	60.2	60.1
MGDKIWLPFPVLLLAALPPVLLPGAAGFTPSLDSDFTFTLPAGQKECFYQPMPLKASLEIEYQVLDGAGLDIDFHLASPEGKTLVFEQRKSDGVHTVETEVGDYMFCFDNTFSTISEKVIFFELILDNMGEQAQEQEDWKKYITGTDILDMKLEDILESINSIKSRLSKSGHIQTLLRAFEARDRNIQESNFDRVNFWSMVNLVVMVVVSAIQVYMLKSLFEDKRKSRT [TMED5]	2.08	1.93	0.107	-0.206	54.2	55.5
MGDPAPARSLDDIDLSALRDPAGIFELVEVVGNGTYGQVYKGRHVKTGQLAAIKVMDVTEDEEEEIKQEINMLKKYSHHRNIATYYGAFIKKSPPGNDDQLWLVMEFCGAGSVTDLVKNTKGNALKEDCIAYICREILRGLAHLHAHKVIHRDIKGQNVLLTENAEVKLVDFGVSAQLDRTVGRRNTFIGTPYWMAPEVIACDENPDATYDYRSDIWSLGITAIEMAEGAPPLCDMHPMRALFLIPRNPPPRLKSKKWSKKFIDFIDTCLIKTYLSRPPTEQLLKFPFIRDQPTERQVRIQLKDHIDRSRKKRGEKEETEYEYSGSEEEDDSHGEEGEPSSIMNVPGESTLRREFLRLQQENKSNSEALKQQQQLQQQQQRDPEAHIKHLLHQRQRRIEEQKEERRRVEEQQRREREQRKLQEKEQQRRLEDMQALRREEERRQAEREQEYKRKQLEEQRQSERLQRQLQQEHAYLKSLQQQQQQQQLQKQQQQQLLPGDRKPLYHYGRGMNPADKPAWAREVEERTRMNKQQNSPLAKSKPGSTGPEPPIPQASPGPPGPLSQTPPMQRPVEPQEGPHKSLVAHRVPLKPYAAPVPRSQSLQDQPTRNLAAFPASHDPDPAIPAPTATPSARGAVIRQNSDPTSEGPGPSPNPPAWVRPDNEAPPKVPQRTSSIATALNTSGAGGSRPAQAVRARPRSNSAWQIYLQRRAERGTPKPPGPPAQPPGPPNASSNPDLRRSDPGWERSDSVLPASHGHLPQAGSLERNRVGVSSKPDSSPVLSPGNKAKPDDHRSRPGRPADFVLLKERTLDEAPRPPKKAMDYSSSSEEVESSEDDEEEGEGGPAEGSRDTPGGRSDGDTDSVSTMVVHDVEEITGTQPPYGGGTMVVQRTPEEERNLLHADSNGYTNLPDVVQPSHSPTENSKGQSPPSKDGSGDYQSRGLVKAPGKSSFTMFVDLGIYQPGGSGDSIPITALVGGEGTRLDQLQYDVRKGSVVNVNPTNTRAHSETPEIRKYKKRFNSEILCAALWGVNLLVGTENGLMLLDRSGQGKVYGLIGRRRFQQMDVLEGLNLLITISGKRNKLRVYYLSWLRNKILHNDPEVEKKQGWTTVGDMEGCGHYRVVKYERIKFLVIALKSSVEVYAWAPKPYHKFMAFKSFADLPHRPLLVDLTVEEGQRLKVIYGSSAGFHAVDVDSGNSYDIYIPVHIQSQITPHAIIFLPNTDGMEMLLCYEDEGVYVNTYGRIIKDVVLQWGEMPTSVAYICSNQIMGWGEKAIEIRSVETGHLDGVFMHKRAQRLKFLCERNDKVFFASVRSGGSSQVYFMTLNRNCIMNW [MINK1]	0.759	2.05	-0.0708	0.157	49.8	50.7
